Reference: the RNAGym collection of RNA variant scans (doi:10.7554/elife.80360)

B1: Hairpin Ribozyme (parent)
chain: GUCCUCUUUCACGUGCGCGUGAAAGAGAGAAGUGAACCAGAGAAACACACGUUGUGGUAUAUUACCUGGUA

Variants of: B1
Assay: self-cleavage, relative activity (ratio to wild type); higher = more cleavage; co-transcriptional

Variant | self-cleavage
GUCCUCUUUCAUGUGCGCGUGAAAGAGAGAAGUGAACCAGAGAAACACACGUUGUGGUAUAUGACCUGGUA | 0.162
GUCCUCUUUCACAUGCGAGUGAAAGAGAGAAGUGAACCAGAGAAACACACGUUGUGGUAUAUUACCUGGUA | 1.02
GUCCUCUUUCACAUGCGCGUGAAAGAGAGAAGUGAACCAGAGAAACACACGUUGUGGUAUAUUACAUGGUA | 0.173
GUCCUCUUUCACAUGCGCGUGAAAGAGAGAAGUGAACCAGAGAAACACACGUUGUGGUAUAUUACUUGGUA | 0.419
GUCCUCUUUCAUGUGCGCGUGAAAGAGAGAAGUGAACCAGAGAAACACACGUUGUGGUAUAUUACCCGGUA | 0.237
GUCCUCUUUCAUGUGCGCGUGAAAGAGAGAAGUGAACCAGAGAAACACACGUCGUGGUAUAUUACCUGGUA | 0.862
GUCCUCUUUCACAUGCGCGUGAAAGAGAGAAGUGAACCAGAGAGACACACGUUGUGGUAUAUUACCUGGUA | 0.125
GUCCUCUUUCACAUGCGCGUGAAAGAAAGAAGUGAACCAGAGAAACACACGUUGUGGUAUAUUACCUGGUA | 0.462
GUCCUCUUUCACAUGCGCGUGAAAGACAGAAGUGAACCAGAGAAACACACGUUGUGGUAUAUUACCUGGUA | 0.217
GUCCUCUUUCAUGUGCGCUUGAAAGAGAGAAGUGAACCAGAGAAACACACGUUGUGGUAUAUUACCUGGUA | 0.954
GUCCUCUUUCACAUGCGCGUGAAAGAGAGAAGUGAACGAGAGAAACACACGUUGUGGUAUAUUACCUGGUA | 0.0904
GUCCUCUUUCACAUGCGCGUGAAAGAGAGAAGUGAACAAGAGAAACACACGUUGUGGUAUAUUACCUGGUA | 0.154
GUCCUCUUUCAUGUGCGCGUGAAAGAGAGAAGUGAACCAGAGAAACACACGUUGUGCUAUAUUACCUGGUA | 0.222
GUCCUCUUUCACAUGCGCGUGAAAGAGAGAAGUGAACCAGAGUAACACACGUUGUGGUAUAUUACCUGGUA | 0.144
GUCCUCUUUCACAUGCCCGUGAAAGAGAGAAGUGAACCAGAGAAACACACGUUGUGGUAUAUUACCUGGUA | 0.507
GUCCUCUUUCACAUGCACGUGAAAGAGAGAAGUGAACCAGAGAAACACACGUUGUGGUAUAUUACCUGGUA | 0.747
GUCCUCUUUCAUGUGCGCGUGAAAGAGAGAAGUGAACCAGAGAAACACACGUUGAGGUAUAUUACCUGGUA | 0.191
GUCCUCUUUCAUGUGCGCGUGAAAGAGAGAAGUGAACCAGAGAAACACACGUUGUGGUAUAUUACCUGGAA | 0.746
GUCCUCUUUCAUGUGCGCGUGAAAGAGAGAAGUGAACCAGAGAAACACACGUUGUGGUAUAUUACCUGGGA | 0.659
GUCCUCUUUCACAUGCGCGUGAAAGAGAGAAGUGAACCGGAGAAACACACGUUGUGGUAUAUUACCUGGUA | 0.279
GUCCUCUUUCACAUGCGCGUGAAAGAGAGGAGUGAACCAGAGAAACACACGUUGUGGUAUAUUACCUGGUA | 0.104
GUCCUCUUUCACAUGCGCGUGAAAUAGAGAAGUGAACCAGAGAAACACACGUUGUGGUAUAUUACCUGGUA | 0.512
GUCCUCUUUCACAUGCGCGUGGAAGAGAGAAGUGAACCAGAGAAACACACGUUGUGGUAUAUUACCUGGUA | 0.676
GUCCUCUUUCACAUGCGCGUGCAAGAGAGAAGUGAACCAGAGAAACACACGUUGUGGUAUAUUACCUGGUA | 0.607
GUCCUCUUUCACAUGCGCGUGAAAGAGAGAAGUGAAACAGAGAAACACACGUUGUGGUAUAUUACCUGGUA | 0.373
GUCCUCUUUCACAUGCGCGUGAAAGAGAGAAGUGAACCAGAGAAACAUACGUUGUGGUAUAUUACCUGGUA | 0.22

Variant | self-cleavage
GUCCUCUUUCACAUGCGCGUGAAAGAGAGAAGUGAACCAGAGAAACAGACGUUGUGGUAUAUUACCUGGUA | 0.118
GUCCUCUUUCACAUGCGCGUGAAAGAGAGAAGUGAACCAGAGAAACAAACGUUGUGGUAUAUUACCUGGUA | 0.144
GUCCUCUUUCAUGUGCGCGUGAAAGAGAGAAGUGAACCAGAGAAACACACGUUGUGGUAGAUUACCUGGUA | 0.504
GUCCUCUUUCAUGUGCGCGUGAAAGAGAGAAGUGAACCAGAGAAACACACGUUGUGGUACAUUACCUGGUA | 1.02
GUCCUCUUUCAUGUGCGCGUGAAAGAGAGAAGUGAACCAGAGAAACACACGUUGUGGUAUAUUACUUGGUA | 0.514
GUCCUCUUUCAUGUGCGCGUGAAAGAGAGAAAUGAACCAGAGAAACACACGUUGUGGUAUAUUACCUGGUA | 0.134
GUCCUCUUUCACAUGCGCCUGAAAGAGAGAAGUGAACCAGAGAAACACACGUUGUGGUAUAUUACCUGGUA | 0.804
GUCCUCUUUCACAUGCGCUUGAAAGAGAGAAGUGAACCAGAGAAACACACGUUGUGGUAUAUUACCUGGUA | 0.825
GUCCUCUUUCAUGUGCGCGUGAAAGAGAGAAGUGAACCAUAGAAACACACGUUGUGGUAUAUUACCUGGUA | 0.191
GUCCUCUUUCACAUGCGCGUGAAAGAGAGAAGUGAACCAGAGAAACACACGUUGUGGUAUAUUACCUGGUG | 0.912
GUCCUCUUUCACAUGCGCGUGAAAGAGAGAAGUGAACCAGAGAAACACACGUUGUGGUAUAUUACCUGGUC | 1.36
GUCCUCUUUCACAUGCGCGUGAAAGAGAGAAGUGAACCAGAGAAACUCACGUUGUGGUAUAUUACCUGGUA | 0.172
GUCCUCUUUCACAUGCGCGUGAAAGAGAGAAGUGAACCAGAGAAAUACACGUUGUGGUAUAUUACCUGGUA | 0.221
GUCCUCUUUCACAUGCGCGUGAAUGAGAGAAGUGAACCAGAGAAACACACGUUGUGGUAUAUUACCUGGUA | 0.627
GUCCUCUUUCACAUUCGCGUGAAAGAGAGAAGUGAACCAGAGAAACACACGUUGUGGUAUAUUACCUGGUA | 1.1
GUCCUCUUUCACAUCCGCGUGAAAGAGAGAAGUGAACCAGAGAAACACACGUUGUGGUAUAUUACCUGGUA | 0.753
GUCCUCUUUCACAUGCGCGUGAAAGAGAGAAGUGAACCAGAGAAACACACGUUGUGGUAUAUUAGCUGGUA | 0.238
GUCCUCUUUCAUGUGCGCGUGAAAGACAGAAGUGAACCAGAGAAACACACGUUGUGGUAUAUUACCUGGUA | 0.15
GUCCUCUUUCAUGUGCGCGUGAAAGAGAGAAGUGAACCAGAGAAACACACGUUGUGGUAUACUACCUGGUA | 0.27
GUCCUCUUUCACAUGCGCGUGAAAGAGAGAAAUGAACCAGAGAAACACACGUUGUGGUAUAUUACCUGGUA | 0.0965
GUCCUCUUUCACAUGCGCGUGAAAGAGAGAACUGAACCAGAGAAACACACGUUGUGGUAUAUUACCUGGUA | 0.136
GUCCUCUUUCAUGUGCGCGGGAAAGAGAGAAGUGAACCAGAGAAACACACGUUGUGGUAUAUUACCUGGUA | 0.76
GUCCUCUUUCAUGUGCGCGUGAAAGAGAAAAGUGAACCAGAGAAACACACGUUGUGGUAUAUUACCUGGUA | 0.164
GUCCUCUUUCACAUGCGCGUGAAAGAGAGAAGUGAACCAGUGAAACACACGUUGUGGUAUAUUACCUGGUA | 0.964
GUCCUCUUUCACAUGCGCGUGAAAGAGAGAAGUGAACCAGGGAAACACACGUUGUGGUAUAUUACCUGGUA | 0.777
GUCCUCUUUCAUGUGCGCGUGAAAGAGAGAAGUGAACCAGAGAAACACACGUUGUUGUAUAUUACCUGGUA | 0.193

Variant | self-cleavage
GUCCUCUUUCAUGUGCGCGUGAAAGAGAGAAGUGAACCAGAGAAACACACGUUGUCGUAUAUUACCUGGUA | 0.137
GUCCUCUUUCAUGUGCGCGUGAAAGAGAGAAGUGAACCAGAGAAACACACGUUUUGGUAUAUUACCUGGUA | 0.58
GUCCUCUUUCACAUGCGCGUGAAAGAGAGAAGUGAACCAGAGAAACACACGUUGUGGUAUUUUACCUGGUA | 0.136
GUCCUCUUUCAUGUGCGCGUGAAAGAGAGAAGUUAACCAGAGAAACACACGUUGUGGUAUAUUACCUGGUA | 1.18
GUCCUCUUUCAUCUGCGCGUGAAAGAGAGAAGUGAACCAGAGAAACACACGUUGUGGUAUAUUACCUGGUA | 0.791
GUCCUCUUUCAUUUGCGCGUGAAAGAGAGAAGUGAACCAGAGAAACACACGUUGUGGUAUAUUACCUGGUA | 0.828
GUCCUCUUUCAUGUUCGCGUGAAAGAGAGAAGUGAACCAGAGAAACACACGUUGUGGUAUAUUACCUGGUA | 1.08
GUCCUCUUUCAUGUACGCGUGAAAGAGAGAAGUGAACCAGAGAAACACACGUUGUGGUAUAUUACCUGGUA | 0.687
GUCCUCUUUCACAUGCGCGUGAAAGAGAGAAGUGAACCAGAGAAACACAUGUUGUGGUAUAUUACCUGGUA | 0.373
GUCCUCUUUCAUGUGCGCGUGAAAGAGAGAAGUGAACCAGAGAAACACACGAUGUGGUAUAUUACCUGGUA | 0.92
GUCCUCUUUCAUGUGCGCGUGAAAGAGAGAAGUGAACCAGAGAAACACACGCUGUGGUAUAUUACCUGGUA | 1.1
GUCCUCUUUCAUGUGCGCGUGAAAGAGAGAAGUGAACCAGAGAAACACACGGUGUGGUAUAUUACCUGGUA | 0.875
GUCCUCUUUCACAUGCGCGUGAAAGAGAGAAGUGGACCAGAGAAACACACGUUGUGGUAUAUUACCUGGUA | 0.732
GUCCUCUUUCACAUGCGCGUGAAAGAGAGAAGUGUACCAGAGAAACACACGUUGUGGUAUAUUACCUGGUA | 0.78
GUCCUCUUUCAUGUGCGCGUGAAAGAGAGAAGUGAACCAGAGAAACACACGUUGUGGUAUAUUACCUCGUA | 0.191
GUCCUCUUUCACAUGCGCGUGAAAGAGAGAAGUGAACCAGAGAAACACACGUUGUGGUGUAUUACCUGGUA | 0.104
GUCCUCUUUCACAUGCGCGUGAAAGAGAGAAGUGAACCAGAGAAACACACGUUGUGGUAUAUUACCUGGUA | 0.87
GUCCUCUUUCACAUGCGCGUGACAGAGAGAAGUGAACCAGAGAAACACACGUUGUGGUAUAUUACCUGGUA | 0.571
GUCCUCUUUCACAUGCGCGUGAAAGAGAGAAGUGAACCAGAGAAGCACACGUUGUGGUAUAUUACCUGGUA | 0.161
GUCCUCUUUCACAUGCGCGUGAAAGAGAGAAGUGAACCAGAGAAACACUCGUUGUGGUAUAUUACCUGGUA | 0.18
GUCCUCUUUCACAUGCGCGUGAAAGAGAGAAGUGAACCAGAGAAACACGCGUUGUGGUAUAUUACCUGGUA | 0.5
GUCCUCUUUCAUGUGCGCGUGAAAGAGAGAAGUGAACCAGACAAACACACGUUGUGGUAUAUUACCUGGUA | 0.265
GUCCUCUUUCACAUGCGCGUGAAAGAGAGAAGUGAACCAGAGAAACACACGUUGUGGUAUAUUUCCUGGUA | 0.258
GUCCUCUUUCACAUGCGCGUGAAAGAGAGAAGUGAACCAGAGAAACACACGUUGUGGUAUAUUCCCUGGUA | 0.178
